Source: patent US20220362394A1 (SUTRO BIOPHARMA, published 2022)
Positions count from the first letter of the chain named.

B1: 10E10 (antibody, V domains shown)
VH: AVTLDESGGGLQTPGGGLSLVCKASGFTFSSYGMGWMRQAPGKGLEFVARINSGGSSYTDYGSAVKGRATISRDDGQSTVRLQLNNLRAEDTGIYYCTRGGGGASIDGWGHGTEVIVSS
VL: ALTQPSSVSANPGETVKITCSGGGNYAGSYYYGWYQQKSPGSAPLTVIYNSNNRPSDIPSRFSGSLSGSTGTLTITGVRAEDEAVYFCGGFDSSTDAIFGAGTTLTVL
notes: Chicken HybriFree-derived antibody; also called Antibody 46
B2: 2190-B01 (antibody, V domains shown)
VH: EVQLVESGGGLVQPGGSLRLSCAASGFNISSYWIHWVRQAPGKGLEWVGVITPSGGYTYYADSVKGRFTISADTSKNTAYLQMNSLRAEDTAVYYCARDLGGGYWVGFFDYWGQGTLVTVSS
VL: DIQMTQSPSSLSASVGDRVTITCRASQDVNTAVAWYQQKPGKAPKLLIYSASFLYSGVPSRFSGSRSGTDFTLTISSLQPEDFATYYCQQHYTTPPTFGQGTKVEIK
notes: also called Antibody 16
B3: 11D6 (antibody, V domains shown)
VH: AVTLDESGGGLQTPGGTLSLVCKASGFTFSSFNMFWVRQAPGEGLEWVAYIRNDGRSTSYGPAVKGRATISRDNGQSTVRLQLNNLRAEDTGTYFCAKTTCVGSGGCIDTWGHGTEVIVSS
VL: ALTQPSSVSANPGETVEITCSGGNSDYGWFQQKSPGSAPVTVIYRNNQRPSDIPSRFSGSGSGSTNTLTITGVQAEDEAIYYCGNVDFTDDVFGAGTTLTVL
notes: Chicken HybriFree-derived antibody; also called Antibody 32
B4: 9A5 (antibody, V domains shown)
VH: AVTLDESGGGLQTPGGAVSLVCKASGFSISDYGMGWMRQAPGKGLQYVARIDHDGRYTDYGAVVKGRATISRDNGQSTVRLQLNNLRAEDTGTYYCTRGGGAASIDTWGHGTEVIVSS
VL: ALTQPSSVSANPGETVKITCSGGGNYVGGYYYGWYQQKAPGSALVTLIYNNNNRPSNIPSRFSGSTSGSTSTLTITGVRAEDEAVYFCGSFDSSTDAIFGAGTTLTVL
notes: Chicken HybriFree-derived antibody; also called Antibody 42
B5: 9E12 (antibody, V domains shown)
VH: AVTLDESGGGLQTPGGGLSLVCKASGFTFSDYGLGWMRQAPGKGLEYVARINSAGSGTYYGSAVDGRATISRDNGQSTVRLQLNNLRAEDTGTYYCTRGGGGASIDGWGHGTEVIVSS
VL: B1 VL with N25S, A27Y, L45V, V47L, S51N, L66T, F87Y, G90S
notes: Chicken HybriFree-derived antibody; also called Antibody 43
B6: 10H1 (antibody, V domains shown)
VH: B5 VH with G17A, D31G, L34M, G57D, Y59D, S62A, D65K, G92A, Y95F
VL: B1 VL with A27Y, S39A, L45V, S51N, D57N, L66K, R79Q, T95S
notes: Chicken HybriFree-derived antibody; also called Antibody 45
B7: 9H1 (antibody, V domains shown)
VH: AVTLDESGGGLQTPGGALSLVCKGSGFTFSDYGMGWMRQAPGKGLQYVARINSAGSDTNYGSAVKGRATISRDDGQSTVRLQLSSLRAEDTGIYYCTRGGGGASIDGWGHGTEVIVSS
VL: B1 VL with N25S, A27Y, L45V, V47L, S51N, L66T, F87Y, G90S
notes: Chicken HybriFree-derived antibody; also called Antibody 44

How the values were obtained:
human BCMA on cells = target: T1, human BCMA on cells (human, UniProt Q02223 1-184); assay: FACS, NCI-H929 cells
T1 construct: also called hBCMA; BCMA on NCI-H929, ARP-1, OPM-2, U266B1, MM.1S, RPMI-8226 cells
T1 sequence: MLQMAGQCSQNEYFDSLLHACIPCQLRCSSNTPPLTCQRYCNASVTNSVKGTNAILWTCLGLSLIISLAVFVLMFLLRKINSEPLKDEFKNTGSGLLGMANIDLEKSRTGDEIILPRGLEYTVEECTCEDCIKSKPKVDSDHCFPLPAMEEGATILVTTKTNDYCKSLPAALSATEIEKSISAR
Method: (§1) Variants for which sufficient protein was purified in secondary screening were tested in a fluorescence-activated cell sorting (FACS) cell-binding assay. […] 6-12 point dilutions of anti-BCMA variants starting from concentrations of about 100-200 nM antibody were dispensed into each well using a BioMekFX (Beckman Coulter). Cells were then incubated on ice for 1 hr, washed with FACS buffer and incubated for 1 hr on ice with […] FACS buffer containing 2.5 μg/ml Alexa647-conjugated Goat Anti-Human IgG dispensed using BioMekFX (Beckman Coulter). Cells were then washed 2× with FACS buffer and fixed for 10 minutes in […] PBS with 2% paraformaldehyde (PFA) prior to fluorescence detection. Samples were acquired using a Beckton Dickinson LSRII FACS. Geometric Mean Fluorescence Intensity of BCMA antibody binding was analyzed using FlowJo® software (Tree Star, Inc.).

rat BCMA on cells = target: T2, rat BCMA on cells (rat); assay: FACS, 293T-ratBCMA cells
T2 construct: whole, on cells

cynomolgus BCMA on cells [1] = target: T3, cynomolgus BCMA on cells (cynomolgus monkey, UniProt Q02223 1-184 (human entry)); assay: FACS, 293T-cynoBCMA cells
T3 sequence (Q02223 other isoform, or with tags, fused parts or gaps): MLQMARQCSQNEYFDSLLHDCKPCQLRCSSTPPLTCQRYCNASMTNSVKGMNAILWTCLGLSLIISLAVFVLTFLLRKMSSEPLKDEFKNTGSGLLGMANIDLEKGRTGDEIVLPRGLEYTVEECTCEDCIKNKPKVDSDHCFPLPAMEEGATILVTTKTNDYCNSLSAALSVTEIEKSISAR
Method: as §1

cyno BCMA-Fc = target: T4, cyno BCMA-Fc (cynomolgus monkey, UniProt Q02223 1-54 (human entry)); assay: ELISA, coated cynoBCMA-Fc
T4 construct: Custom protein production; also called cynomolgus BCMA-Fc; not shown: Fc part not described

human BCMA-Fc [2] = target: T5, human BCMA-Fc (human, UniProt Q02223 1-54); assay: ELISA, coated huBCMA-Fc
T5 construct: Bought from R&D Systems; also called huBCMA-Fc; not shown: Fc part not described
T5 sequence: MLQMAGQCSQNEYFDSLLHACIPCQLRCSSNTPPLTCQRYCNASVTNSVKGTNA

cynomolgus BCMA on cells [3] = target: T3, cynomolgus BCMA on cells; assay: FACS, 293T-cynoBCMA cells; NSB = non-saturating binding
human BCMA-Fc [4] = target: T5, human BCMA-Fc; assay: SPR Biacore, antibody captured, 25 C
Method: (§2) Anti-Fab or anti-Fc polyclonal antibodies were immobilized onto a CM5 chip (GE Life Sciences) using amine coupling chemistry (from Amine Coupling Kit, GE Life Sciences). The immobilization steps were carried out at a flow rate of 25 μL/min in 1×HBS-EP+ buffer (GE Life Sciences; 10× Stock diluted before use). The sensor surfaces were activated for 7 min with a mixture of NHS (0.05 M) and EDC (0.2 M). The anti-Fab or anti-Fc antibodies were injected over all 4 flow cells at a concentration of 25 μg/ml in 10 mM sodium acetate, pH 4.5, for 7 min. Ethanolamine (1 M, pH 8.5) was injected for 7 min to block any remaining activated groups.
(§3) Off-rate and kinetic binding experiments were performed at 25° C. using 1×HBS-EP+ buffer. […] After capturing ligand (antibody) on the anti-Fab or anti-Fc surface, the analyte (human BCMA-Fc, cyno BCMA-Fc, or human BCMA from R&D Systems, custom protein production, or Sigma Aldrich, respectively) was bound for 180 seconds, followed by a 600 second dissociation phase at a flow rate of 50 μL/min. Between each ligand capture and analyte binding cycle, regeneration was carried out using 2 injections of 10 mM glycine pH 2.0 for 30 seconds at 30 μL/min, followed by a 30 second buffer wash step.
(§4) The data was fit with the Biacore T200 Evaluation software, using a 1-1 Langmuir binding model. KD (affinity, nM) was determined as a ratio of the kinetic rate constants calculated from the fits of the association and dissociation phases.

human BCMA-Fc [5] = target: T5, human BCMA-Fc; assay: SPR Biacore, human BCMA-Fc kinetics
Method: as §2, §3, §4

| Binder | Bmax (human BCMA on cells) | Kd (human BCMA on cells) | Bmax (rat BCMA on cells) | Kd (rat BCMA on cells) | Bmax (cynomolgus BCMA on cells [1]) | Kd (cynomolgus BCMA on cells [1]) | Bmax (cyno BCMA-Fc) | EC50 (cyno BCMA-Fc) | Bmax (human BCMA-Fc [2]) | EC50 (human BCMA-Fc [2]) | binding result (cynomolgus BCMA on cells [3]) | Kd (human BCMA-Fc [4]) | koff (human BCMA-Fc [4]) | kon (human BCMA-Fc [4]) | Kd (human BCMA-Fc [5]) | koff (human BCMA-Fc [5]) | kon (human BCMA-Fc [5]) |
| --- | --- | --- | --- | --- | --- | --- | --- | --- | --- | --- | --- | --- | --- | --- | --- | --- | --- |
| B1 | 3440 MFI | 4.67 nM | 906 MFI | 6.83 nM | 4540 MFI | 18.9 nM | – | – | – | – | – | – | – | – | – | – | – |
| B2 | – | – | – | – | – | – | 2.15e+06 | 19.3 nM | 3.68e+06 | 0.3 nM | binds | 5.23 nM | 0.000712 s⁻¹ | 136000 M⁻¹ s⁻¹ | – | – | – |
| B3 | 26400 MFI | 47.5 nM | – | – | 27700 MFI | 12.2 nM | – | – | – | – | – | – | – | – | 0.313 nM | 0.000318 s⁻¹ | 1.02e+06 M⁻¹ s⁻¹ |
| B4 | 19700 MFI | 1.01 nM | 2780 MFI | 7.13 nM | 18200 MFI | 0.64 nM | – | – | – | – | – | – | – | – | – | – | – |
| B5 | 8140 MFI | 0.52 nM | 4690 MFI | 2.61 nM | 13200 MFI | 0.34 nM | – | – | – | – | – | – | – | – | – | – | – |
| B6 | 22500 MFI | 0.36 nM | 4350 MFI | 0.39 nM | 21200 MFI | 0.25 nM | – | – | – | – | – | – | – | – | 2.92 nM | 17.9 s⁻¹ | 6.14e+09 M⁻¹ s⁻¹ |
| B7 | 6160 MFI | 1 nM | 3450 MFI | 1.32 nM | 11400 MFI | 0.39 nM | – | – | – | – | – | – | – | – | – | – | – |
